Laboratory results taken from publication PMC6733935, “A convenient and efficient total solid-phase synthesis of DOTA-functionalized tumor-targeting peptides for PET imaging of cancer” (EJNMMI Research, 2019).
Numbered stars: 1 amine (or outer) side, 2 acyl side, 3 side chain; on linkers, the order of the positions; unused ones are H or OH. Square brackets hold non-standard residues; d marks the D form. Peptide text beside a SMILES is read from it. * marks the point of attachment. DOTA = O=C(O)CN1CCN(CC(=O)O)CCN(CC(=O)*)CCN(CC(=O)O)CC1; Cha = N[C@@H](CC1CCCCC1)C(=O)O; X1 = O=C(CCC(=O)[*:2])CN[*:1]; Nle = CCCC[C@H](N)C(=O)O; Ahx = NCCCCCC(=O)O

What was measured:
[1] = in vivo; design: species or system Balb/c mice; conditions: Balb/c, mouse, iv
Experimental: Approval for the animal protocol used in this study was obtained from the Institutional Animal Care and Use Committee. Animal studies were conducted according to the international regulations governing the safe and proper use of laboratory animals. In vivo biodistribution were performed on healthy Balb/c mice (n = 3–5 in each group, body weight 19–22 g) at 1 and 2 h after intravenous injection of the HPLC-purified radiopeptide (100 μL, 15–20 μCi, total peptide dose ~ 20 ng) via the lateral tail vein. The mice were sacrificed by cervical dislocation at specified time points and blood samples were withdrawn with a syringe from the heart. Major organs such as lungs, stomach, spleen, pancreas, intestines, liver, kidneys, etc. were isolated, weighed, and radioactivity in each organs and tissues were measured using a γ-scintillation counter. Uptake of radioactivity in the tissues and organs was expressed as the percent injected dose per gram (% ID/g) of tissue/organ, which was calculated by comparison with standard solutions representing 10% of the injected dose per animal. For the clearance studies, radioactivity in the urine with bladder and feces is expressed as the percent of the injected dose per tissue (% ID). Values are expressed as mean ± SD for a group of 3-5 animals at each time point.

[2] = molecular target: T1, BN/GRP receptor-positive MDA-MB-231 human breast cancer cells (Homo sapiens, UniProt P30550); assay: Saturation binding assay on MDA-MB-231 cells; conditions: n = 3-5 experiments; for Bmax (apparent number of binding sites per cell): SD < 15%; for Kd: ~300,000 cells, 0.1-25 nM radiopeptide, 60 min, room temperature, mean ± SD
T1 construct: BN/GRP receptor-positive MDA-MB-231, MCF7, T47D human breast cancer, and PC3 human prostate cancer lines; host or cells: MDA-MB-231, MCF7, T47D (human breast cancer), PC3 (human prostate cancer); intact cells
Experimental: (§1) The cell binding of ^68Ga-radiolabeled peptides into BN/GRP receptor-positive MDA-MB-231, MCF7, T47D human breast cancer, and PC3 human prostate cancer lines (American Type Culture Collection, Rockville, MD, USA) was performed according to the method described previously. In brief, ∼ 300,000 cells (in 300 μL in low-serum media) were incubated with various amounts of radiopeptides, ranging between 0.1 and 25 nM of peptide (prepared from the serial dilutions of HPLC-purified radiopeptides), in duplicate for 60 min at room temperature. The initial concentrations of ^68Ga-labeled peptides were determined according to a well-established HPLC technique with simultaneous detection by UV absorbance. As the amount of BN peptide in the reaction mixture was too small to be detected by UV absorption at 220 nm, the radioactive peptide chromatograms from the HPLC analysis were compared (with UV chromatograms) with those of known concentrations of the corresponding nonradioactive peptides for the mass determination. Incubation was terminated by dilution with cold saline (300 μL) and the cells were pelleted by centrifugation. The cell pellets was then rapidly washed with cold saline to remove any unbound peptide and centrifuged to collect supernatants. Radioactivity in the cell pellet and the washings was measured in a γ-counter. Non-specific binding was determined in the presence of ~ 200-fold molar excess of unlabeled BN peptide. Specific binding is calculated by subtracting the non-specifically bound radioactivity from that of the total binding. The dissociation constant (Kd) was calculated using a plot of cell bound activity versus the concentration of the radioligand using GraphPad Prism software (GraphPad Software Inc., San Diego, CA, USA).

[3] = molecular target: T2, BN/GRP receptor-positive PC3 human prostate cancer cells (Homo sapiens, UniProt P30550); assay: Saturation binding assay on PC3 cells; conditions: n = 3-5 experiments; for Bmax (apparent number of binding sites per cell): SD < 15%; for Kd: ~300,000 cells, 0.1-25 nM radiopeptide, 60 min, room temperature, mean ± SD
T2 construct: BN/GRP receptor-positive MDA-MB-231, MCF7, T47D human breast cancer, and PC3 human prostate cancer lines; host or cells: MDA-MB-231, MCF7, T47D (human breast cancer), PC3 (human prostate cancer); intact cells
Experimental: as §1

[4] = assay type: physicochemical
Experimental: For lipophilicity determination, each HPLC-purified radiopeptide (~ 20 μL, ∼ 25 μCi) was added into a glass tube containing an equal volume mixture of n-octanol and water (1 mL each). The samples were vigorously vortexed for 5 min and subsequently centrifuged (5000 rpm, 5 min) to yield two immiscible layers. Duplicate samples (100 μL) from each layer were carefully taken (to avoid cross-contamination between the layers) for radioactivity measurement using a γ-counter. Partition coefficient was determined by the function: partition coefficient = Log10 (radioactivity in octanol layer/radioactivity in aqueous layer).

[5] = in vivo; assay type: in vivo, nude mice; conditions: female, nude, mouse, in vivo, total radioactivity
Procedure, shortened: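 Female mice bore subcutaneous left-thigh xenografts of ~5 million MDA-MB-231 cells in PBS, grown 4-6 weeks to 200-300 mg. Animals received 20-30 μCi of 68Ga-labelled peptide and were sacrificed at set time points; tumour and organ uptake measured by γ-counting.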

[6] = total radioactivity, %ID excreted in Feces
[7] = total radioactivity, Uptake in Blood
[8] = total radioactivity, Uptake in Bone
[9] = total radioactivity, Uptake in Intestines (measured without their contents)
[10] = total radioactivity, Uptake in Kidneys
[11] = total radioactivity, Uptake in Pancreas
[12] = total radioactivity, Uptake in Spleen
[13] = total radioactivity, Uptake in Stomach
[14] = Radioactivity in Urine + bladder
[15] = Uptake in Intestines (measured without their contents)

CCCC[C@H](NC(=O)[C@H](Cc1c[nH]cn1)NC(=O)[C@H](CC1CCCCC1)NC(=O)[C@@H](NC(=O)[C@H](C)NC(=O)[C@H](Cc1c[nH]c2ccccc12)NC(=O)[C@H](CCC(N)=O)NC(=O)[C@H](CS)NC(=O)CNC(=O)CNC(=O)CCCCCNC(=O)CN1CCN(CC(=O)O)CCN(CC(=O)O)CCN(CC(=O)O)CC1)C(C)C)C(=O)N[C@@H](CCSC)C(N)=O [^68Ga-DOTA-Ahx-BN Tris-, metal not drawn] ({DOTA-Ahx}-GGCQWAV[Cha]H[Nle]M-NH2)
%ID excreted in Feces ([1]; 1 h): 0.83 ± 0.19 %ID
%ID excreted in Urine ([1]; 1 h): 74.0 ± 8.03 %ID
Uptake in Blood ([1]; 1 h): 0.29 ± 0.05 %ID/g
Uptake in Bone ([1]; 1 h): 0.17 ± 0.03 %ID/g
Uptake in Intestines (measured without their contents) ([1]; 1 h): 0.67 ± 0.12 %ID/g
Uptake in Kidneys ([1]; 1 h): 2.89 ± 0.41 %ID/g
Uptake in Liver ([1]; 1 h): 1.12 ± 0.30 %ID/g
Uptake in Lungs ([1]; 1 h): 0.36 ± 0.10 %ID/g
Uptake in Pancreas ([1]; 1 h): 2.0 ± 0.27 %ID/g
Uptake in Spleen ([1]; 1 h): 0.09 ± 0.01 %ID/g
Uptake in Stomach ([1]; 1 h): 1.71 ± 0.19 %ID/g
%ID excreted in Feces ([1]; 2 h): 0.69 ± 0.10 %ID
%ID excreted in Urine ([1]; 2 h): 69.0 ± 5.15 %ID
Uptake in Blood ([1]; 2 h): 0.17 ± 0.02 %ID/g
Uptake in Bone ([1]; 2 h): 0.09 ± 0.01 %ID/g
Uptake in Intestines (measured without their contents) ([1]; 2 h): 0.43 ± 0.09 %ID/g
Uptake in Kidneys ([1]; 2 h): 1.63 ± 0.24 %ID/g
Uptake in Liver ([1]; 2 h): 0.53 ± 0.09 %ID/g
Uptake in Lungs ([1]; 2 h): 0.22 ± 0.05 %ID/g
Uptake in Pancreas ([1]; 2 h): 1.25 ± 0.13 %ID/g
Uptake in Spleen ([1]; 2 h): 0.06 ± 0.0 %ID/g
Uptake in Stomach ([1]; 2 h): 0.48 ± 0.06 %ID/g
Bmax (apparent number of binding sites per cell) [2]: 5.27 × 10^5 sites/cell
Kd [2]: 11.6 ± 3.05 nM
Bmax (apparent number of binding sites per cell) [3]: 4.88 × 10^5 sites/cell
Kd [3]: 10.4 ± 1.71 nM
Log P (octanol/water) [4]: − 1.18 ± 0.06

CCCC[C@H](NC(=O)[C@H](Cc1c[nH]cn1)NC(=O)[C@H](CC1CCCCC1)NC(=O)[C@@H](NC(=O)[C@H](C)NC(=O)[C@H](Cc1c[nH]c2ccccc12)NC(=O)[C@H](CCC(N)=O)NC(=O)[C@H](CS)NC(=O)CNC(=O)CNC(=O)CCC(=O)CNC(=O)CN1CCN(CC(=O)O)CCN(CC(=O)O)CCN(CC(=O)O)CC1)C(C)C)C(=O)N[C@@H](CCSC)C(N)=O [^68Ga-DOTA-ALA-BN Cyclen, metal not drawn] ({DOTA}-[X1]GGCQWAV[Cha]H[Nle]M-NH2)
Uptake in Lungs ([1]; 1 h): 1.39 ± 0.30 %ID/g
%ID excreted in Urine ([1]; 2 h): 46.0 ± 9.12 %ID
Uptake in Liver ([1]; 2 h): 1.75 ± 0.26 %ID/g
Uptake in Lungs ([1]; 2 h): 0.98 ± 0.23 %ID/g
dose excreted at 1 h [1, 6]: 1.07 ± 0.17%
dose excreted at 2 h [1, 6]: 0.91 ± 0.14%
dose excreted at 1 h ([1]; total radioactivity, %ID excreted in Urine): 53 ± 6.8%
tissue uptake at 1 h [1, 7]: 0.8 ± 0.16 %ID/g
tissue uptake at 2 h [1, 7]: 0.51 ± 0.12 %ID/g
tissue uptake at 1 h [1, 8]: 0.24 ± 0.04 %ID/g
tissue uptake at 2 h [1, 8]: 0.15 ± 0.02 %ID/g
tissue uptake at 1 h [1, 9]: 0.88 ± 0.15 %ID/g
tissue uptake at 2 h [1, 9]: 0.73 ± 0.12 %ID/g
tissue uptake at 1 h [1, 10]: 5.89 ± 1 %ID/g
tissue uptake at 2 h [1, 10]: 3.05 ± 0.41 %ID/g
tissue uptake at 1 h ([1]; total radioactivity, Uptake in Liver): 2.3 ± 0.37 %ID/g
tissue uptake at 1 h [1, 11]: 1.54 ± 0.31 %ID/g
tissue uptake at 2 h [1, 11]: 0.89 ± 0.12 %ID/g
tissue uptake at 1 h [1, 12]: 0.1 ± 0.01 %ID/g
tissue uptake at 2 h [1, 12]: 0.08 %ID/g
tissue uptake at 1 h [1, 13]: 1.5 ± 0.37 %ID/g
tissue uptake at 2 h [1, 13]: 0.44 ± 0.1 %ID/g
Bmax (apparent number of binding sites per cell) [2]: 1.02 × 10^5 sites/cell
Kd [2]: 15.1 ± 3.12 nM
Bmax (apparent number of binding sites per cell) [3]: 2.12 × 10^5 sites/cell
Kd [3]: 9.7 ± 2.01 nM
Log P (octanol/water) [4]: − 0.80 ± 0.05
dose excreted at 1 h [5, 14]: 62 ± 6.28%
dose excreted at 2 h [5, 14]: 71 ± 9.68%
tissue uptake at 1 h ([5]; Uptake in Blood): 0.79 ± 0.13 %ID/g
tissue uptake at 2 h ([5]; Uptake in Blood): 0.37 ± 0.1 %ID/g
tissue uptake at 1 h [5, 15]: 0.9 ± 0.12 %ID/g
tissue uptake at 2 h [5, 15]: 0.6 ± 0.1 %ID/g
tissue uptake at 1 h ([5]; Uptake in Kidneys): 5.94 ± 0.63 %ID/g
tissue uptake at 2 h ([5]; Uptake in Kidneys): 3.2 ± 0.32 %ID/g
tissue uptake at 1 h ([5]; Uptake in Liver): 1.4 ± 0.26 %ID/g
tissue uptake at 2 h ([5]; Uptake in Liver): 1.12 ± 0.19 %ID/g
tissue uptake at 2 h ([5]; Uptake in Lungs): 0.67 ± 0.13 %ID/g
tissue uptake at 1 h ([5]; Uptake in Muscle): 0.3 ± 0.06 %ID/g
tissue uptake at 2 h ([5]; Uptake in Muscle): 0.21 ± 0.03 %ID/g
tissue uptake at 1 h ([5]; Uptake in Pancreas): 1.05 ± 0.12 %ID/g
tissue uptake at 2 h ([5]; Uptake in Pancreas): 0.88 ± 0.11 %ID/g
tissue uptake at 1 h ([5]; Uptake in Spleen): 0.26 ± 0.03 %ID/g
tissue uptake at 1 h ([5]; Uptake in Stomach): 0.87 ± 0.19 %ID/g
tissue uptake at 2 h ([5]; Uptake in Stomach): 0.46 ± 0.05 %ID/g
